# Source: PMC7586219
# Key:
# [1] = target: Porites astreoides caspase-3 (Porites astreoides); test: SEC; Superdex75 Increase 10/300GL; protein 1-5 mg/ml, 200 ul loaded; 30 mM potassium phosphate, pH 7.5, 1 mM DTT; column calibrated with the LMW calibration kit; protomer to dimer
# [2] = target: Orbicella faveolata caspase-3b (Orbicella faveolata); test: as above
stoichiometry N [1],stoichiometry N [2],Substance
2,,Porites astreoides caspase-3 (enzyme)
,2,Orbicella faveolata caspase-3b (enzyme)
